Laboratory results from patent US20190127481A1 (UNIVERSIT T Z RICH, published 2019).

Key:
[1] = biological target: T1, HER2 (form in the assay not stated) (human, UniProt P04626 23-652, limits assumed); experiment: method and HER2 form not stated
[2] = biological target: T1, HER2 (form in the assay not stated); experiment: method not stated
[3] = biological target: T2, HER2 (ErbB2/Neu) on the surface of HER2-overexpressing cancer cells (human, UniProt P04626 23-1255); experiment: flow cytometry on intact BT474 cells, Alexa488-labelled agent
T2 construct: whole, on cells; also called HER2 on BT474, SkBr3, SkOv3 cells
Method: Cells were detached by collagenase and EDTA for 5 min at 37° C. The solution was quenched by addition of medium and centrifuged at 300 g for 3 min. Cells were washed twice in warm PBS. […] Internalization was blocked by incubation in PBS containing 0.2% NaN₃ and 1% BSA for 30 min at 37° C.
For each time point, a 1 ml aliquot of cells is withdrawn and subjected to FACS. Since the applied concentrations of the labeled ligand conjugates are very low, and since the time resolution of the measurement is to be maintained to ensure the accuracy of the on-rate determination, the samples are processed without further washing. For each time point, at least 10⁴ intact cells (gated as a uniform population on a FSC/SSC scatter plot) are counted, and the MFI (mean fluorescence intensity) is recorded.
Corresponding to 100 μl cell suspension, samples were washed twice in 1 ml PBS (0.2% NaN₃, 1% BSA) and centrifuged at 600 g for 30 sec at room temperature. Cells were resuspended in 1 ml PBS (0.2% NaN₃, 1% BSA) containing 100 nM of equivalent unlabeled binding agent. The dissociation reaction was incubated for the indicated times (15, 30, 60, 120, 180 and 240 min) at room temperature while continuously stirring in the dark. Dissociation was stopped by placing the cell pellets on ice. Each sample was washed once with 1 ml cold PBS.

[4] = biological target: T2, HER2 (ErbB2/Neu) on the surface of …; experiment: dissociation from BT474 cells by flow cytometry in the presence of a competing DARPin

B1: DARPin 929 (designed binder)
chain: MRGSHHHHHHGSDLGKKLLEAARAGQDDEVRILMANGADVNAHDFYGITPLHLAANFGHLEIVEVLLKHGADVNAFDYDNTPLHLAADAGHLEIVEVLLKYGADVNASDRDGHTPLHLAAREGHLEIVEVLLKNGADVNAQDKFGKTAFDISIDNGNEDLAEILQKLN
modifications: Alexa Fluor-488 label in the flow-cytometry kinetics (attachment site not given)
notes: Member of the 9XX collection
Binder B1 has a Kd [1] of 3.8 nM, a koff [1] of 0.0008 s⁻¹ and a kon [1] of 200000 M⁻¹ s⁻¹. For the same binder, the Kd [2] was 1 nM, the Kd [3] was 33.5 nM and the koff [3] was 0.00221 s⁻¹. For the same binder, the kon [3] was 69000 M⁻¹ s⁻¹.

B2: DARPin H14 (designed binder)
chain: GSDLGKKLLEAARAGQDDEVRILMANGADVNATDIHGHTPLHLAAAMGHLEIVEVLLKNGADVNANDWRGFTPLHLAALNGHLEIVEVLLKNGADVNATDTAGNTPLHLAAWFGHLEIVEVLLKNGADVNAQDKFGKTAFDISIDNGNEDLAEILQKLN
B2 gave a Kd [1] of 0.2 nM, a koff [1] of 0.0001 s⁻¹ and a kon [1] of 410000 M⁻¹ s⁻¹. For the same binder, the Kd [3] was 0.97 nM, the koff [3] was 0.000179 s⁻¹ and the kon [3] was 196000 M⁻¹ s⁻¹.

B3: DARPin 926 (designed binder)
chain: MRGSHHHHHHGSDLGKKLLEAARAGQDDEVRILMANGADVNAKDFYGITPLHLAAAYGHLEIVEVLLKHGADVNAHDWNGWTPLHLAAKYGHLEIVEVLLKHGADVNAIDNAGKTPLHLAAAHGHLEIVEVLLKYGADVNAQDKFGKTAFDISIDNGNEDLAEILQKLN
notes: Member of the 9XX collection
B3 was tested, and the Kd [1] was 1.4 nM, the koff [1] was 0.0001 s⁻¹ and the kon [1] was 70000 M⁻¹ s⁻¹. It also gave a Kd [2] of 1 nM.

B4: DARPin G3 (designed binder)
chain: GSDLGKKLLEAARAGQDDEVRILMANGADVNAKDEYGLTPLYLATAHGHLEIVEVLLKNGADVNAVDAIGFTPLHLAAFIGHLEIAEVLLKHGADVNAQDKFGKTAFDISIGNGNEDLAEILQKLN
B4 showed a Kd [2] of 0.09 nM.

B5: 9_26-(G4S)4-G3 (designed binder)
chain: MRGSHHHHHHGSDLGKKLLEAARAGQDDEVRILMANGADVNAKDFYGITPLHLAAAYGHLEIVEVLLKHGADVNAHDWNGWTPLHLAAKYGHLEIVEVLLKHGADVNAIDNAGKTPLHLAAAHGHLEIVEVLLKYGADVNAQDKFGKTAFDISIDNGNEDLAEILQKLGGGGSGGGGSGGGGSGGGGSRSDLGKKLLEAARAGQDDEVRILMANGADVNAKDEYGLTPLYLATAHGHLEIVEVLLKNGADVNAVDAIGFTPLHLAAFIGHLEIAEVLLKHGADVNAQDKFGKTAFDISIGNGNEDLAEILQKLN
modifications: fluorescently labelled in the dissociation assay; dye and site not stated
notes: 20 amino acid (G4S)4 linker; also called 6_20_G
With B5 the “fold lower off-rate than monovalent G3” value [4] was 10 fold.

B6: 9_29-(G4S)4-G3 (designed binder)
chain: MRGSHHHHHHGSDLGKKLLEAARAGQDDEVRILMANGADVNAHDFYGITPLHLAANFGHLEIVEVLLKHGADVNAFDYDNTPLHLAADAGHLEIVEVLLKYGADVNASDRDGHTPLHLAAREGHLEIVEVLLKNGADVNAQDKFGKTAFDISIDNGNEDLAEILQKLGGGGSGGGGSGGGGSGGGGSRSDLGKKLLEAARAGQDDEVRILMANGADVNAKDEYGLTPLYLATAHGHLEIVEVLLKNGADVNAVDAIGFTPLHLAAFIGHLEIAEVLLKHGADVNAQDKFGKTAFDISIGNGNEDLAEILQKLN
modifications: fluorescently labelled in FIG. 18A (dye and site not carried by the letters)
notes: 20 amino acid (G4S)4 linker; also called 9_20_G
For B6, the “fold lower off-rate than monovalent G3” value [4] was 10 fold.

B7: G3-(G4S)4-9_26 (designed binder)
chain: MRGSHHHHHHGSDLGKKLLEAARAGQDDEVRILMANGADVNAKDEYGLTPLYLATAHGHLEIVEVLLKNGADVNAVDAIGFTPLHLAAFIGHLEIAEVLLKHGADVNAQDKFGKTAFDISIGNGNEDLAEILQKLGGGGSGGGGSGGGGSGGGGSRSDLGKKLLEAARAGQDDEVRILMANGADVNAKDFYGITPLHLAAAYGHLEIVEVLLKHGADVNAHDWNGWTPLHLAAKYGHLEIVEVLLKHGADVNAIDNAGKTPLHLAAAHGHLEIVEVLLKYGADVNAQDKFGKTAFDISIDNGNEDLAEILQKLN
modifications: fluorescently labelled in FIG. 18A (dye and site not carried by the letters)
notes: Opposite orientation of 6_20_G; also called G_20_6
For B7, the “fold lower off-rate than monovalent G3” value [4] was 10 fold.
